According to patent US8603949B2, “Libraries of optimized cytochrome P450 enzymes and the optimized P450 enzymes” (California Institute of Technology, priority 2003, dated 2013):
Where a name gives a salt, the structure may show the parent alone. One block for each molecule: values may come before it.

What was measured:
Mammalian P450 = settings: cited from earlier work
[1] = Peroxidase activity with ABTS and H2O2; type: biochemical; settings: for peroxidase activity relative to parents: ABTS; for Peroxidase activity: 10 mM ABTS, 20 mM H2O2, pH 5.0, activities <0.2 not detectable (N.D.)
Description: P450s can reduce peroxide to water (and a proton) using a mechanism similar to that of peroxidases, although the intrinsic rate for P450s is many orders of magnitude slower. (Mansuy, D., Comp Biochem Physiol C Pharmacol Toxicol Endocrinol 121, 5-14 (1998)). It has been proposed that the earliest P450 function may have been as a peroxidase. (Gotoh, O., Cytochrome P450, 2nd Edition, pp. 255-272 (1993)). To investigate how recombination affects P450 peroxidase activity, the colorimetric substrate 2,2′-azino-bis(3-ethylbenzothiazoline-6-sulfonate) (ABTS) was used to monitor this reaction (Childs et al., Biochem J 145,93-103 (1975)).
This example provides an example of how one can measure peroxidase activity. Initial rates of peroxidase activity were measured by monitoring the accumulation of the radical cation of ABTS at 414 nm (Childs et al., Biochem J., 145:93-103 (1975)). Enzyme (1 μM) was mixed with 10 mM ABTS in 200 mM phosphate buffer (pH 5.0) in a cuvette at room temperature. Samples were zeroed and reactions were initiated with the addition of H2O2 to a concentration of 20 mM. The absorbance at 414 nm was monitored for 5 minutes. Rates were determined from the steepest portion of the time course. An extinction coefficient of […] for ABTS was used.

[2] = Peroxygenase substrate activity profile; type: biochemical; settings: 20 mM H2O2
Experimental: (§1) The chimeras were assayed for hydroxylation of p-nitrophenoxydodecanoic acid (12-pNCA), a fatty acid analog that is hydroxylated by CYP102A1 and CYP102A2 to yield p-nitrophenolate (Schwaneberg et al., Anal Biochem 269,359-366 (1999)). […] When hydroxylation rates for the parent CYP102 enzymes were monitored using the maximum soluble concentrations of these substrates, activity could only be detected on 2-phenoxy-ethanol.
Chimeras were assayed for peroxygenase activity on 12-pNCA, 2-phenoxy -ethanol and allyloxy-benzene. […] Rates are reported in nmol product/nmol P450/minute. […] Those with no activity include 65-256 and 277-365. Those with new activity include 165-256, 191-335, and 43-135.
This Example provides one method by which peroxygenase activity of a P450 enzyme may be characterized. First order rates for p-nitrophenolate accumulation were determined using 1 μM enzyme, 20 mM H2O2, 250 μM 12-pNCA and 0.5% dimethyl sulfoxide (DMSO) in 100 mM Tris-HCl (pH 8.2) at room temperature. Enzyme, substrate, buffer and DMSO were combined in a cuvette and zeroed at 410 nm. Reaction mixtures were incubated for 4 minutes and initiated by the addition of H2O2 to a final concentration of 20 mM. Initial rates were determined by monitoring the accumulation of p-nitrophenolate at 410 nm, and data from the first six seconds were used to determine initial rates. […] The extinction coefficient of p-nitrophenolate is 13,200 M^−1cm^−1 (Schwaneberg et al., Anal Biochem 269:359-366 (1999)).
(§2) Rates on 2-phenoxy-ethanol and allyloxy-benzene were determined using 2 μM enzyme, 20 mM H2O2, 1% DMSO, and 1% acetone in 100 mM N-[2-hydroxyethyl]piperazine-N′-[3-propanesulfonic acid] (Epps) (pH 8.2) at room temperature. Substrate concentrations for 2-phenoxy-ethanol (100 mM) and allyloxy benzene (50 mM) maintained saturation. Reactions were initiated by the addition of H2O2 and quenched at appropriate times using an equal volume of a solution containing 4M urea and 100 mM NaOH. 120 μl of 0.6% 4-AAP was added, followed by mixing and addition of 120 μl of 0.6% potassium persulfate. Color was allowed to develop for 20 minutes before absorbance was read at 500 nm. Rates were determined from the linear region of the time course. The major products were determined by GC/MS to be the hemiacetal, which decomposes to phenol. The extinction coefficient for the 4-AAP/phenol complex was determined to be 4,800 M^−1cm^−1. The results can be seen in FIG. 4.

[3] = Thermostability (loss of Soret band at increasing temperatures); type: physicochemical; settings: cell extracts heated 10 minutes
Experimental: Thermostability was assayed by monitoring the loss of the Soret band at increasing temperatures. […] However, thermostability may be important for retention of catalytic activity: the two chimeras that lacked peroxygenase activity were also the least thermostable.
Cell extracts were heated in a thermocycler for 10 minutes at various temperatures, followed by cooling to 4° C. Extracts were centrifuged for 5 minutes at 3500×g to remove any precipitates. Carbon monoxide reduced difference spectroscopy was used to quantitate the amount of P450. The reduction of the carbon monoxide peak was monitored over a range of temperatures.

[4] = Peroxygenase activity on 2-phenoxy-ethanol (4-AAP assay); type: biochemical
Experimental: as §1, §2

Molecule: CCCCNC(=O)NS(=O)(=O)c1ccc(C)cc1 [Tolbutamide]
Mammalian P450 (main mammalian P450 responsible for breakdown) (Mammalian P450): CYP2C9

Molecule: O=C(O)Cc1ccccc1Nc1c(Cl)cccc1Cl [Diclofenac]
Mammalian P450 (main mammalian P450 responsible for breakdown) (Mammalian P450): CYP2C9

Molecule: Nc1c2c(nc3ccccc13)CCCC2 [Tacrine, 9-amino-1,2,3,4-tetrahydroacridine hydrochloride hydrate]
Mammalian P450 (main mammalian P450 responsible for breakdown) (Mammalian P450): CYP1A2

Molecule: Nc1ccc(-c2ccccc2)cc1 [4-aminobiphenyl]
Mammalian P450 (main mammalian P450 responsible for breakdown) (Mammalian P450): CYP1A2

Molecule: COc1ccc(C(c2ccc(OC)cc2)C(Cl)(Cl)Cl)cc1 [methoxychlor]
Mammalian P450 (main mammalian P450 responsible for breakdown) (Mammalian P450): CYP2B6

The next lines start with results.

substrate activity profile relative to parents [2]: no activity
B1: Chimera 277-365: CYP102A1 heme domain with residues 277-365 from CYP102A2 (protein)
chain: TIKEMPQPKTFGELKNLPLLNTDKPVQALMKIADELGEIFKFEAPGRVTRYLSSQRLIKEACDESRFDKNLSQALKFVRDFAGDGLATSWTHEKNWKKAHNILLPSFSQQAMKGYHAMMVDIAVQLVQKWERLNADEHIEVPEDMTRLTLDTIGLCGFNYRFNSFYRDQPHPFITSMVRALDEAMNKLQRANPDDPAYDENKRQFQEDIKVMNDLVDKIIADRKASGEQSDDLLTHMLNGKDPETGEPLDDENIRYQIITFLIAGHETTSGLLSFATYFLLKHPDKLKKAYEEVDRVLTDAAPTYKQVLELTYIRMILNESLRLWPTAPAFSLYPKEDTVIGGKFPITTNDRISVLIPQLHRDRDIWGDDVEEFRPERFENPSAIPQHAFKPFGNGQRACIGQQFALHEATLVLGMMLKHFDFEDHTNYELDIKETLTLKPEGFVVKAKSKKIPLGGIPSPST
modifications: Chimeric Cytochrome P450 heme group sequence from Bacillus megaterium and Bacillus subtilis
notes: CYP102A1 heme domain with residues 277-365 from CYP102A2
peroxidase activity relative to parents [1]: no detectable peroxidase activity
Tm [3]: 39 °C

substrate activity profile relative to parents [2]: parent-like profiles
B2: Chimera 118-194: CYP102A1 heme domain with residues 118-194 from CYP102A2 (protein)
chain: TIKEMPQPKTFGELKNLPLLNTDKPVQALMKIADELGEIFKFEAPGRVTRYLSSQRLIKEACDESRFDKNLSQALKFVRDFAGDGLATSWTHEKNWKKAHNILLPSFSQQAMKGYHAKMVDIAVQLIQKWARLNPNEAVDVPGDMTRLTLDTIGLCGFNYRFNSYYRETPHPFINSMVRALDEAMHQMQRLDVQDPAYDENKRQFQEDIKVMNDLVDKIIADRKASGEQSDDLLTHMLNGKDPETGEPLDDENIRYQIITFLIAGHETTSGLLSFALYFLVKNPHVLQKAAEEAARVLVDPVPSYKQVKQLKYVGMVLNEALRLWPTAPAFSLYAKEDTVLGGEYPLEKGDELMVLIPQLHRDKTIWGDDVEEFRPERFENPSAIPQHAFKPFGNGQRACIGQQFALHEATLVLGMMLKHFDFEDHTNYELDIKETLTLKPEGFVVKAKSKKIPLGGIPSPST
modifications: Chimeric Cytochrome P450 heme group sequence from Bacillus megaterium and Bacillus subtilis
notes: CYP102A1 heme domain with residues 118-194 from CYP102A2
Peroxidase activity [1]: 34.3 nmol product/nmol P450/min
peroxidase activity relative to parents [1]: significantly higher peroxidase activities
Tm [3]: 47 °C

substrate activity profile relative to parents [2]: no activity
B3: Chimera 65-256: CYP102A1 heme domain with residues 65-256 from CYP102A2 (protein)
chain: TIKEMPQPKTFGELKNLPLLNTDKPVQALMKIADELGEIFKFEAPGRVTRYLSSQRLIKEACDEERFDKSIEGALEKVRAFSGDGLATSWTHEPNWRKAHNILMPTFSQRAMKDYHEKMVDIAVQLIQKWARLNPNEAVDVPGDMTRLTLDTIGLCGFNYRFNSYYRETPHPFINSMVRALDEAMHQMQRLDVQDKLMVRTKRQFRYDIQTMFSLVDSIIAERRANGDQDEKDLLARMLNVEDPETGEKLDDENIRFQIITFLIAGHETTSGLLSFALYFLVKNPHVLQKAAEEAARVLVDPVPSYKQVKQLKYVGMVLNEALRLWPTAPAFSLYAKEDTVLGGEYPLEKGDELMVLIPQLHRDKTIWGDDVEEFRPERFENPSAIPQHAFKPFGNGQRACIGQQFALHEATLVLGMMLKHFDFEDHTNYELDIKETLTLKPEGFVVKAKSKKIPLGGIPSPST
modifications: Chimeric Cytochrome P450 heme group sequence from Bacillus megaterium and Bacillus subtilis
notes: CYP102A1 heme domain with residues 65-256 from CYP102A2
peroxidase activity relative to parents [1]: no detectable peroxidase activity
Tm [3]: 36 °C

substrate activity profile relative to parents [2]: parent-like profiles
B4: Chimera 50-140: CYP102A1 heme domain with residues 50-140 from CYP102A2 (protein)
chain: TIKEMPQPKTFGELKNLPLLNTDKPVQALMKIADELGEIFKFEAPGRVTIVVSGHELVKEVCDEERFDKSIEGALEKVRAFSGDGLATSWTHEPNWRKAHNILMPTFSQRAMKDYHEKMVDIAVQLIQKWARLNPNEAVDVPEDMTRLTLDTIGLCGFNYRFNSFYRDQPHPFITSMVRALDEAMNKLQRANPDDPAYDENKRQFQEDIKVMNDLVDKIIADRKASGEQSDDLLTHMLNGKDPETGEPLDDENIRYQIITFLIAGHETTSGLLSFALYFLVKNPHVLQKAAEEAARVLVDPVPSYKQVKQLKYVGMVLNEALRLWPTAPAFSLYAKEDTVLGGEYPLEKGDELMVLIPQLHRDKTIWGDDVEEFRPERFENPSAIPQHAFKPFGNGQRACIGQQFALHEATLVLGMMLKHFDFEDHTNYELDIKETLTLKPEGFVVKAKSKKIPLGGIPSPST
modifications: Chimeric Cytochrome P450 heme group sequence from Bacillus megaterium and Bacillus subtilis
notes: CYP102A1 heme domain with residues 50-140 from CYP102A2
Peroxidase activity [1]: 10.4 nmol product/nmol P450/min
peroxidase activity relative to parents [1]: significantly higher peroxidase activities
Tm [3]: 52 °C

substrate activity profile relative to parents [2]: altered activity
B5: Chimera 46-73: CYP102A1 heme domain with residues 46-73 from CYP102A2 (protein)
chain: TIKEMPQPKTFGELKNLPLLNTDKPVQALMKIADELGEIFKFEAPAGTTIVVSGHELVKEVCDEERFDKSIEGALKFVRDFAGDGLATSWTHEKNWKKAHNILLPSFSQQAMKGYHAMMVDIAVQLVQKWERLNADEHIEVPEDMTRLTLDTIGLCGFNYRFNSFYRDQPHPFITSMVRALDEAMNKLQRANPDDPAYDENKRQFQEDIKVMNDLVDKIIADRKASGEQSDDLLTHMLNGKDPETGEPLDDENIRYQIITFLIAGHETTSGLLSFALYFLVKNPHVLQKAAEEAARVLVDPVPSYKQVKQLKYVGMVLNEALRLWPTAPAFSLYAKEDTVLGGEYPLEKGDELMVLIPQLHRDKTIWGDDVEEFRPERFENPSAIPQHAFKPFGNGQRACIGQQFALHEATLVLGMMLKHFDFEDHTNYELDIKETLTLKPEGFVVKAKSKKIPLGGIPSPST
modifications: Chimeric Cytochrome P450 heme group sequence from Bacillus megaterium and Bacillus subtilis
notes: CYP102A1 heme domain with residues 46-73 from CYP102A2
fold higher peroxygenase activity with 2-phenoxy-ethanol than the most active parent (CYP102A1) [4]: 6 fold
peroxygenase activity on 2-phenoxy-ethanol ([4]; 100 mM substrate): highest activity
Peroxidase activity [1]: 6.8 nmol product/nmol P450/min
Tm [3]: 55 °C
